Assay results taken from PMC12069552, “Root stem cell homeostasis in Arabidopsis involves cell-type specific transcription factor complexes” (EMBO Reports, 2025).

B1: TPL-mCherry (TOPLESS) (natural protein, Arabidopsis thaliana, UniProt Q94AI7 1-1131, looked up)
chain: MSSLSRELVFLILQFLDEEKFKETVHKLEQESGFFFNMKYFEDEVHNGNWDEVEKYLSGFTKVDDNRYSMKIFFEIRKQKYLEALDKHDRPKAVDILVKDLKVFSTFNEELFKEITQLLTLENFRENEQLSKYGDTKSARAIMLVELKKLIEANPLFRDKLQFPTLRNSRLRTLINQSLNWQHQLCKNPRPNPDIKTLFVDHSCGPPNGARAPSPVNNPLLGGIPKAGGFPPLGAHGPFQPTASPVPTPLAGWMSSPSSVPHPAVSAGAIALGGPSIPAALKHPRTPPTNASLDYPSADSEHVSKRTRPMGISDEVNLGVNMLPMSFSGQAHGHSPAFKAPDDLPKTVARTLSQGSSPMSMDFHPIKQTLLLVGTNVGDIGLWEVGSRERLVQKTFKVWDLSKCSMPLQAALVKEPVVSVNRVIWSPDGSLFGVAYSRHIVQLYSYHGGEDMRQHLEIDAHVGGVNDISFSTPNKQLCVITCGDDKTIKVWDAATGVKRHTFEGHEAPVYSVCPHYKENIQFIFSTALDGKIKAWLYDNMGSRVDYDAPGRWCTTMAYSADGTRLFSCGTSKDGESFIVEWNESEGAVKRTYQGFHKRSLGVVQFDTTKNRYLAAGDDFSIKFWDMDAVQLLTAIDGDGGLQASPRIRFNKEGSLLAVSGNENVIKIMANSDGLRLLHTFENISSESSKPAINSIAAAAAAAATSAGHADRSANVVSIQGMNGDSRNMVDVKPVITEESNDKSKIWKLTEVSEPSQCRSLRLPENLRVAKISRLIFTNSGNAILALASNAIHLLWKWQRNERNATGKATASLPPQQWQPASGILMTNDVAETNPEEAVPCFALSKNDSYVMSASGGKISLFNMMTFKTMATFMPPPPAATFLAFHPQDNNIIAIGMDDSTIQIYNVRVDEVKSKLKGHSKRITGLAFSNVLNVLVSSGADAQLCVWNTDGWEKQRSKVLPLPQGRPNSAPSDTRVQFHQDQAHFLVVHETQLAIYETTKLECMKQWAVRESLAPITHATFSCDSQLVYASFMDATVCVFSSANLRLRCRVNPSAYLPASLSNSNVHPLVIAAHPQEPNMFAVGLSDGGVHIFEPLESEGKWGVAPPAENGSASGAPTAPSVGASASDQPQR
notes: TOPLESS (TPL) of Arabidopsis thaliana; the CDS amplified from cDNA; FRET acceptor; source: N. benthamiana abaxial epidermal leaf cells, transiently expressed (β-estradiol inducible), in cells
B2: WOX5-mCherry (WUSCHEL-RELATED HOMEOBOX 5) (natural protein, Arabidopsis thaliana, UniProt Q8H1D2 1-182, looked up)
chain: MSFSVKGRSLRGNNNGGTGTKCGRWNPTVEQLKILTDLFRAGLRTPTTDQIQKISTELSFYGKIESKNVFYWFQNHKARERQKRRKISIDFDHHHHQPSTRDVFEISEEDCQEEEKVIETLQLFPVNSFEDSNSKVDKMRARGNNQYREYIRETTTTSFSPYSSCGAEMEHPPPLDLRLSFL
notes: WUSCHEL-RELATED HOMEOBOX 5 (WOX5), homeodomain transcription factor of Arabidopsis thaliana; the CDS, described in Burkart et al, 2022; FRET acceptor; construct XVE:WOX5-mCherry of Burkart et al, 2022; source: N. benthamiana abaxial epidermal leaf cells, transiently expressed (β-estradiol inducible), in cells
B3: BRAVO-mCherry (natural protein, Arabidopsis thaliana, UniProt Q6R053 1-323, looked up)
chain: MNPNLLEKDLRGKETTNGSIRYKEANNFRSLPNSHTAACKTSLNNPSISRNHPHNKSASVLESEDEHGNERGENEKSLRMRGKSGINTKVCSRGHWRPTEDAKLKELVAQFGPQNWNLISNHLLGRSGKSCRLRWFNQLDPRINKRAFTEEEEFRLLAAHRAYGNKWALISRLFPGRTDNAVKNHWHVIMARRTRESQRQRQQPPPTLSRDAEMTVSSSCRYNQGKFINEEDDDDDVSAVSTCTTELSLTPPSSAYQPRFFNYDSTLASGKDGQCVQRAEVNGIYGKKMDHQNHHTISVSERKVEMKMRSGYYYFDFLGVGAS
notes: BRAVO, R2R3-MYB transcription factor of Arabidopsis thaliana; the CDS amplified from cDNA; FRET acceptor; source: N. benthamiana abaxial epidermal leaf cells, transiently expressed (β-estradiol inducible), in cells

Assays:
[1] = molecular target: BRAVO-mVenus (BRASSINOSTEROIDS AT VASCULAR AND ORGANIZING CENTRE) (Arabidopsis thaliana) (UniProt Q6R053); test: FRET or BRET; FRET-FLIM in nuclei of transiently expressing N. benthamiana epidermal leaf cells; mVenus fusion as donor, mCherry fusion as acceptor; 'binding' [%] is the amplitude of the FRET component (number of donor molecules undergoing FRET); binding cutoff 10%; a binding not significantly different from the negative control (mCherry-NLS) is regarded as no interaction
[2] = molecular target: WOX5-mV(N) PLT3-mV(C) heterodimer (BiFC donor) (Arabidopsis thaliana) (UniProt Q8H1D2); test: split reporter (BiFC, NanoBiT) + FRET or BRET; BiFC-FRET-FLIM in nuclei of N. benthamiana epidermal leaf cells; mVenus donor split into mV(N) and mV(C) on two proteins, third protein with mCherry as acceptor; 'binding' [%]; binding cutoff 10%
[3] = molecular target: T1, BRAVO-mV(N) PLT3-mV(C) heterodimer (BiFC donor) (Arabidopsis thaliana, UniProt Q6R053 1-323; Q52QU2 1-581); test: as above; details: partners not purified
T1 construct: BRAVO, R2R3-MYB transcription factor of Arabidopsis thaliana; the CDS amplified from cDNA; PLETHORA 3 (PLT3) of Arabidopsis thaliana; the CDS, described in Burkart et al, 2022; The two halves of mVenus are reconstituted in the heterodimer, which serves as FRET donor; source: N. benthamiana abaxial epidermal leaf cells, transiently co-expressed, in cells
T1 sequence (looked up) 1: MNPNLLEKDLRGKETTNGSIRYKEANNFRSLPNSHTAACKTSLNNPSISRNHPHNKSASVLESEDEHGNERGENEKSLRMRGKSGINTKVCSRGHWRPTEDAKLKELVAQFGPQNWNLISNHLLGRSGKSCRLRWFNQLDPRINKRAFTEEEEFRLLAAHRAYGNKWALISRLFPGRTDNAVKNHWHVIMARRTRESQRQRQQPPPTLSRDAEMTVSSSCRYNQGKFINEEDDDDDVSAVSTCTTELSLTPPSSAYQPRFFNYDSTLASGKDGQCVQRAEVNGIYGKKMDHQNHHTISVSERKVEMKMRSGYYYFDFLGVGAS
T1 sequence (looked up) 2: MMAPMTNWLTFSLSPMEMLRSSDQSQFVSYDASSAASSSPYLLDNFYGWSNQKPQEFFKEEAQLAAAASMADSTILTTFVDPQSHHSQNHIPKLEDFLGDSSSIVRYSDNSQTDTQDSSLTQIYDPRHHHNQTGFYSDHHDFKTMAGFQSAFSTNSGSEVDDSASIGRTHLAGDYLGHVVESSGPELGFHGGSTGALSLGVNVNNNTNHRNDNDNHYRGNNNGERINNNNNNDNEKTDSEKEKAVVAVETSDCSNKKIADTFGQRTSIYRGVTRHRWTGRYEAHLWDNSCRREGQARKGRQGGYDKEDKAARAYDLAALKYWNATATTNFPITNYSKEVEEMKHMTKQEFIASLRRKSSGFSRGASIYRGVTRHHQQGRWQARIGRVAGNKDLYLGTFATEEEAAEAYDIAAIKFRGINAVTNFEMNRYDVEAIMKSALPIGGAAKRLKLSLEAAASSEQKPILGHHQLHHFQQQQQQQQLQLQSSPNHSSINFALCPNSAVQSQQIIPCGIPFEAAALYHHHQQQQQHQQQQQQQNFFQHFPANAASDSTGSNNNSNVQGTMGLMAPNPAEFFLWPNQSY

[4] = molecular target: T2, WOX5-mV(N) PLT3-mV(C) heterodimer (BiFC donor) (Arabidopsis thaliana, UniProt Q8H1D2 1-182; Q52QU2 1-581); test: as above; details: partners not purified
T2 construct: WUSCHEL-RELATED HOMEOBOX 5 (WOX5) of Arabidopsis thaliana; the CDS, described in Burkart et al, 2022; PLETHORA 3 (PLT3) of Arabidopsis thaliana; The two halves of mVenus are reconstituted in the heterodimer, which serves as FRET donor; also called heterodimer of WOX5 and PLT3; source: N. benthamiana abaxial epidermal leaf cells, transiently co-expressed, in cells
T2 sequence (looked up) 1: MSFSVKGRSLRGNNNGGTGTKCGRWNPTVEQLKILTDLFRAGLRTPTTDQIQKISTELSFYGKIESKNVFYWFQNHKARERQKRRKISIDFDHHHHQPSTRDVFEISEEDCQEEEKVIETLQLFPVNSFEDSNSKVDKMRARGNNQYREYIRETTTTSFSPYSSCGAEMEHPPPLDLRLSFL
T2 sequence (looked up) 2: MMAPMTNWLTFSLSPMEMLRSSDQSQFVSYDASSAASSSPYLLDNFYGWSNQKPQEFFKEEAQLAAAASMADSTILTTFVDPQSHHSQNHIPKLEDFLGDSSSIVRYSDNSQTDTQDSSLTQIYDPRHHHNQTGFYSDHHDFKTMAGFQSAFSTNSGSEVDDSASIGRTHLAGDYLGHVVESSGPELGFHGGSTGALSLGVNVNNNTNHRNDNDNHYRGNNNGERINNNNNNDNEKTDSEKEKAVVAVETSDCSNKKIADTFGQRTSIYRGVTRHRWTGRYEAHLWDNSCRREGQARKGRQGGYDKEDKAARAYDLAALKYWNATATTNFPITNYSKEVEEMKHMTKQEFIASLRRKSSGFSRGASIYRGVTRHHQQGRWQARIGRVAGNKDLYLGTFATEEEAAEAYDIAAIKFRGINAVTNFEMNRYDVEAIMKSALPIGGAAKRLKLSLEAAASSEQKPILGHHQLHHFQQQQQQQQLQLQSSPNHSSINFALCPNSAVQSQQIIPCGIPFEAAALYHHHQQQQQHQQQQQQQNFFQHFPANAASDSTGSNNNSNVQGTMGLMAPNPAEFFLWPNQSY

[5] = molecular target: T3, BRAVO-mVenus (BRASSINOSTEROIDS AT VASCULAR AND ORGANIZING CENTRE) (Arabidopsis thaliana, UniProt Q6R053 1-323); test: FRET or BRET; FRET-FLIM in nuclei of transiently expressing N. benthamiana epidermal leaf cells; mVenus fusion as donor, mCherry fusion as acceptor; 'binding' [%] is the amplitude of the FRET component (number of donor molecules undergoing FRET); binding cutoff 10%; a binding not significantly different from the negative control (mCherry-NLS) is regarded as no interaction; details: partners not purified
T3 construct: BRAVO, R2R3-MYB transcription factor of Arabidopsis thaliana; the CDS amplified from cDNA; FRET donor; source: N. benthamiana abaxial epidermal leaf cells, transiently expressed (β-estradiol inducible promoter), in cells
T3 sequence (looked up): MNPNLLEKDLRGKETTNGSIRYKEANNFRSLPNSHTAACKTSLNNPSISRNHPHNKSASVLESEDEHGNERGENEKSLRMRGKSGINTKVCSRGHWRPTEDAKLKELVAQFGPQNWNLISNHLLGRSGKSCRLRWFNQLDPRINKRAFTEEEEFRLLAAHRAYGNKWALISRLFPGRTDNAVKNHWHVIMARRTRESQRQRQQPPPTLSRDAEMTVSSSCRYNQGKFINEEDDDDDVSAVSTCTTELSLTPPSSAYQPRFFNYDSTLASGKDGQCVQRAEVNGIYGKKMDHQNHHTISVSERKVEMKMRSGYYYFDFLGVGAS

Row | Molecule | binding (FRET-FLIM, share of donor molecules undergoing FRET) [1] | binding (FRET-FLIM, share of donor molecules undergoing FRET) [2] | binding (FRET-FLIM, share of donor molecules undergoing FRET) [3] | binding (FRET-FLIM, share of donor molecules undergoing FRET) [4] | binding (FRET-FLIM, share of donor molecules undergoing FRET) [5]
1 | BES1D-mCherry (BRI1-EMS-SUPPRESSOR 1, BES1D form) (from UniProt Q9LN63 1-335) (natural protein) | 27.4% | 18.7% | – | – | –
2 | B1 | – | – | 21.1 ± 8.3% | 23.3 ± 8.3% | 26.7 ± 9.8%
3 | B2 | – | – | 29.8 ± 10.6% | – | 22.4 ± 14.1%
4 | B3 | – | – | – | 36.3 ± 10.7% | –
